The nanobody polyreactivity screen of Harvey et al. (2022)

Assay: yeast display, Sf9 membrane polyspecificity reagent, FACS + sequencing; frameworks hold sequencing errors
Method in brief: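 Genes from sorted yeast were amplified by colony PCR, read by MiSeq 2 × 250 sequencing and filtered on CDR length. These cells carried a synthetic nanobody library in Saccharomyces cerevisiae BJ5465 and were sorted by FACS into low and high (top ~1%) gates on anti-HA and streptavidin fluorescence. Polyreactivity is labelled according to the gate of origin.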

| Sequence | polyreactivity (PSR sort gate) |
| --- | --- |
| QVQLVESGGGLVQAGGSLRLSCAASGSIFDRYAMGWYRQAPGKERELVASISNRGGRTFYADSVKGRFTISRDNAKNTVYLQMNSLKPEDTAVYYCARKTYYTGDFLGREYGYWGQGTQVTVSS | low polyreactivity |
| QVQLVESGGGLVQAGGSLRLSCAASMGWYRQAPGKERELVAITRTTRTYYADSVKGRFTISRDNAKNTVYLQMNSLKPVDTAVYYCAAPNGPSPYWYNYWGQGTQVTVSS | low polyreactivity |
| QVQLVESGGGLVQAGGSLRLSCAASGSTFWWNTRGWYRQAPGKERELVADIRTSGGGTYYADSVKGRFTISLDNAKNTFYLQMNSLKPEDTAVYYCNADPKWEMGSWGQGTQVTVSS | low polyreactivity |
| QVQLVESGGGLVQAGGSLRLSCAASGSTFDYYAMGWYRQAPGKEREFVASINWNGARTYYADSVKGRFTISRDNAKNTVYLQMNSLKPEDTAVYYCAAYTKRYLYNYWGQGTQVTVSS | high polyreactivity |
| QVQLVESGGGLVQAGGSLRLSCAASGRTFAGYAMGWYRQAPGKERELVAGIRRSGDSTYYADSVKGRFTISRDNAKNTVYLQMNSLKPEDTAVYYCAAAPISKYGPYRGTGYRMGYWGQGTQVTVSS | high polyreactivity |
| QVQLVESGGGLVQAGRSLRLSCAASGRIFSYNAMGWYRQAPGKETELVAAITFSGGRTYYADSVKGRFTISRDNAKNTVYLQMNSLKPEDTAVYYCNAYWQGYGYDYWGQGTQVTVSS | low polyreactivity |
| QVQLVESGGGLVQAGGSLRLSCAASGRIFFYYAMGWYRQAPGKERELVATITASGDSTYYADSVKGRFTISRDNAMDTVYLQMNSLKPEDTAVYYCAADDGDYYEVDYWGQGTQVTVSS | low polyreactivity |
| QVQLVESGGGLVQAGGSLRLSCAASGRILQGYAMGWYRQAPGKERELVASIRTGGTTNYADSVKGRFTISRDNAKNTVYLQMNSLKPEDTAVYYCNLGYYSYYGRYYYWGQGTQVTVSS | high polyreactivity |
| QVQLVESGGGLVQAGGSLRLSCAASGSIFDSKAMGWYRQAPGKERELVAAISQGGDDTYYADSVKGRFTISRDNAKNTVYLQMNSLKPEDTAVYYCAAEFFYITGAYDYWGQGTQVTVSS | low polyreactivity |
| QVQLVESGGGLVQAGGSLRLSCAASGFIFLYYAMGWNTQSPGKERELVADISRGADTKYADSVKGRFTISRDNAKNTVYLQMNSLKPEDTAVYYCATDITTFWFPYPGVELGYWGQGSQVTVSS | low polyreactivity |
| QVQLVETGGGLVQAGGSLRLSCAASGLTSLGNAMGGYRQAPGKERELVAAITRTVTSTYYADSVKGRFTISRDTAKNTVYLQMNSLKPEDTAVYYCAADWWYGYSNYDYWGQGTEVTVSS | low polyreactivity |
| QVQLVESGGGLVQAGGSLRLSCAASGRTFKPYAMGWYRQAPGKERELVAAIRSAGTTNYADSVKGRFTISRDNAKNTVYLQMNSLKPEDTAVYYCNAGTYLRRYYGFDYWGQGTQVTVSS | high polyreactivity |
| QVQLVESGGGLVQAGGSLRLSCAASGFIFGYNAMGWYRQAPGKERELVAAIDWSGTSTYYADSVKGRFTISRDNAKNTVYLQMNSLKPEDTAVYYCAADTSTWAHTRGYDYWGQGTQVTVSS | high polyreactivity |
| KVQLGVSGGGLVQAGGSLRLSCASSGFIFRYYAMGWSRQAPGKERELVAGISSGGSTYYADSVKGRFTISRDNAKNTVYLKMNSLKPEDTAVYYCNAVYSSGVDGSEGFDYWGQGTQVTVSS | low polyreactivity |
| QVQLVESAGGLVQAGGSLRLSCAASGSTLSWNTMGWYRQAPGKERELVARINWGGSSTYYADSVKGRFTISRDNAKNTVYLQMNSLKPEDTAVFYCNARYLSSAYDYWGQGTQVTVSS | high polyreactivity |
| QVQHVESGGGLVQAGGSLRLSCAASGRTFVRYAMGWSRPAPGKERELVAAISRSGVGTYYADSVKGRFTISRDNAKKTVYLQMNSLKPEDTAVYYCNALPGTQYNYWGQGTQVTVSS | high polyreactivity |
| QVQLVESGGGLVQAGGSLRLSCADSGSTFWYYVMGWYRQAPGKERELVAVINTRGGSTYYADSVKGRFTISRDNAKNTVYLQMNSLKPEDTAVYYCNARKVKRGKYNYWGQGTQVTVSS | high polyreactivity |
| QDQLVESGGGLVQSGGSLRLSCAASGSTFYYYAMGWYRQAPGKERELVAAITSSTGRTYYADSVKGRFTISRDNAKYTVYLQMNSLKPEDTAVYYCITRRGSLSGLYVYSIQGYDYWGQGTQVTVSS | low polyreactivity |
| QVQLVESGGGLVQAGGSLRLSCAASGSTFGYYAMGWYRPAPGKERELVAAISSSAGTTYYADSVKGCFTISRDNAKNTVYLLMNRLKPEDTAVFYCAADAVSGHEYWGQGTQVTVSS | low polyreactivity |
| QVQLVESGGGLVQAGGSLRLSCAASGRTLAHYTMGWYRQAPGKERELVAAITFSGGRTYYAHSVKGRFTISRDNAKNTVYLQMNSLKPEDTAVYYCAAPGRCYYRGDDYWGQGTQVTVSS | low polyreactivity |
| QVQLEETGGGLVQAGASLRISCAASGSIMGQNGMGWYRHAPGKEREFVAGIGYGTTTNYADSVKGRFTTSRDNAKNTVYLQMISMKPEDTAVYYCAAYQGNGYEFYYWGQGTQVTVRS | low polyreactivity |
| QVQLVESGGGLVQAGGSLRLSCAASGFIFGGYAMGWYRQAPGKERELVAAITRGGSTDYADSVKGRFTISRDNAKNTVYLQMNSLKPEDTAVYYCAKKTPGWGKFDYWGQGTQVTVSS | low polyreactivity |

| Sequence | polyreactivity (PSR sort gate) |
| --- | --- |
| QDQLVESGGGLVQAGGSLRLSCAASGYTFPSYAMGWYRQAPGKEREFVAAIDSSGGSTNYADSVKGRFTISRDNAKNTVYLQMNSLKPEETAVYYCAREYSSGYWVRHLFYYWGQGTKVTVSS | low polyreactivity |
| QVQLVESGGGLVQAGGSLRLSCAASGSIFGLYAMGWYRQAPGKERELVAAINQSGGSTSYADSVKGRFTISRDNAKNTVYLQMNSLKPEDTAVYYCAADSAFYTGSDYGWSDYDYWGQGTQVTVSS | low polyreactivity |
| QVQLVESGGGLVQAGGSLRLSCAASGRIFSYYAMGWYRQAPGKERELVARISWRGGSTYYADSVKGRFTISRDNSKNTVYLQMNSLKPEDSAVYYCAATSPYYRTGYDYWGQGTQVTVSS | high polyreactivity |
| QVQLVESGGGLVQAGGILRLSCAASGFIFNRYAMGWSRQSPGKARELVADITGGSTYYADSVKGRFTISRDNAKNTVYLQMNSLKPEDTAVYYCAAYVWRYWHEYDYWGQGTQVTVSS | low polyreactivity |
| QVQLVESGGGLVQAGGSLRLSCAASGGIFVPNAMGWSRQAPGKARELVAAISYSGGRTYYADSVKGRFTISRDNAKNTVYLQMTSLKPEDTAVYYCAAEYWFVYHHYNYWGQGTQVTVSS | high polyreactivity |
| QVQLVESGGGLVQAGGSLRLSCAASGFIFSRYAMGWYRQAPGKVRELVASISWGGGSTSYADSVKGRFTISRDNAKNTVYLQMNSLKPEDTAVYYCNARVRSHRFNYWGQGTQVTVSS | high polyreactivity |
| QVQLVESGGGVVQAGGSHRLSCAASGRTFRGNAMGWYRQAPGTERELVATITCSGGSTYYADSVKGRFTISRDNAKNTGYLQMNSLKPEDTAGYAGAVRGLHLVWVPFGYDYWRQGTQVTVSS | low polyreactivity |
| QVQLVESGGGLVQAGGSLRLSCAASGSIIGYYAMGWYRQAPGKERELVAAITASGGSTYYADSVKGRFTISRDNAKNTVYLQMNSLKPEDTAVYHCAADRIGGPGSYLYDYWGQGTQVTVSS | low polyreactivity |
| QVQLVESGGGLVQAGGSLRLSCAASGSTFSDNAMGWYRQAPGKERELVAAITSGGSTYYADSVKGRFTISRDNAKNTVYLQMNSLKPEDTAVYYCAADYWGQGTQVTVSS | low polyreactivity |
| QVQLVESGGGLVQAGGSLRLSCAASGRTFIGNAMGWYRQAPGKERELVAGIDSDGSTNYADSVKGRFTISRDNAKNTVYLQMNSLKPEDTAVYYCAAVQGYRFYEYYYWGQGTQVTVSS | low polyreactivity |
| QVQLVESGGGLVQAGGSLRLSCAASGRIFRYYAMGWYRQAPGKERELVAAISSGVGNTYYADSVKWRFTISRDNAKNTVYLQKNSLKPEDTAVYYCNAKWRKFGTVRYDYWGQGTQVTVSS | high polyreactivity |
| QVQLVESGGGLVQAGGSLRLSCAASGSIFSAYAMGWYRQAPGKEREFVASITWSGGSTYYADSVKGRFTISRDNAKNTVYLQMNSLKPEDTAVYYCAAVYVTWYNNYEYWGQGTQVTVSS | high polyreactivity |
| QVQLVESGGGLVQAGGSLRLSCAASGGTFYVYAMGWYRQAPGKERELVAAISTSDGITYYADSVKGRFTISRDNAKNTVYLQMNSLKPEDTAVYYCAAEFFSSFTYAYDYWGQGTQVTVSS | high polyreactivity |
| QVQLVESGGGLVQAGGSLRLSCAASGRILYLNDMGWYRQAPGKERELGAAITRRAGSTSYADSVKGRFTISRDNAKNTFYLQMNSLKPEDTAVYYCAKATSRRGFYYWGQGTQVTVSS | high polyreactivity |
| HVQLLESGGGLVQAGGSLRLSCAASGFTFRSYAMGWYRQAPGKERELVAAISGSGGSTYYADSVKGRFTISRDNAKNTVYLQMNSLKPEVTAVYYCAARRSKNSALGGRVSIGDYWGQGTQVTVSS | high polyreactivity |
| QVQLVESGGGLVQAGGSLRLSCAASGGTFYFYAMGWYRQAPGKERELVATITRGGSTYYADSVKGRFTISRDNAKNTVYLQMNSLKPEDTAVYYCAARQYSRRRSPVSTWYYYWGQGTQVTVSS | high polyreactivity |
| QVQLVESGGGLVQAGGSLRLSCAASGITFIYYDMGWYRQAPGKEREFVAAINYRGTSTYYADSVKGRFTISRDNAKNTVYLQMNSLKPEDTAVYYCAARLRQTGGDRLGYWGQGTQVTVSS | high polyreactivity |
| QVQLVESGGGLVQAGGSLRLRCAASGRTFTYNAMVWYRQAPGKERELVPANNFSGVSTYYADSVKGRFTISRDNAKNTVYLQMNILKPEVTAVYYCAARGSARKSFPYPLEYWGQGTQVTVSS | high polyreactivity |
| QVQLVESGGGLVQAGGSLRLSCAASGLTFYQNAMGWYRQAPGKERELVAAISSSGGRTYYADSVKGRFTISRDNAKNTVYLQMNSLKPEDTAVYYCAAYRRYRNWFNYWGQGTQVTVSS | high polyreactivity |
| QVQLVESGGGLVQAGGSLRLSCAASGIIFSPYAMGWYRQAPGNERELVAAISYSGGSTYYADSVKGRFTISRDNAKNTVYLQMNSLKPEDTAVYYCAVVYSYYLAVLGYWDYDYWGQGTQVTVSS | low polyreactivity |
| QVQLQEGGGLVQAGGSLRLSCAASGYISSPPAMGWYRQAPGKERAFVATIADGTSTYYADSVKGRFTISRDNAKNTVYLQMNSLKTEDTEVYYCAAAYNTEFYLSYWGQGTQVTVIS | high polyreactivity |
